The values that follow come from patent US8236762B2, “Peptide-cytotoxic conjugates” (IPSEN Pharma S.A.S., priority 2006, dated 2012).

Data set [1] can be described thus: Half-life determination in mouse plasma (LC-MS). To be noted: 37° C. The data set is classed as in vitro ADME. How it is done: (§1) Samples containing approximately 50 μg/ml up to and including approximately 500 μg/ml of test compound according to Formula IA or IB or II was added to 450 μl human or mouse plasma, vortexed briefly and incubated at 37° C. At various time intervals, e.g., 0, 0.5, 1, 2, 4, 6, 8, 24, 36 and 48 hours, 50 μl of the compound-plasma mixture was added to 150 μl acetonitrile in a microcentrifuge tube. The mixture was vortexed, centrifuged for 5 minutes at 10K RPM, and 135 μl of supernatant was transferred to an injection vial. The recovered supernatant was analyzed by using a liquid chromatography-mass spectrophotometer system (LC-MS) consisting of a Finnigan Deca XP® mass spectrometer with an ESI probe at the positive ion mode. HPLC separation was carried out on a Luna 3μ C8 (2)® 3×50 mm column with a gradient decreasing from 100% A to 80% B for 10 minutes at a flow rate of 0.25 ml/min. Buffer A was 0.1% acetic acid in water and buffer B was 0.1% acetic acid acetonitrile.

Data set [2] can be described thus: Half-life determination in human plasma (LC-MS). The data set is classed as in vitro ADME. To be noted: 37° C. How it is done: as §1
The target of another data set is T1, hSSTR-1 (Homo sapiens, UniProt P30872).
T1 construct: expressed in transfected cells; host or cells: CHO-K1
Briefly: Somatostatin receptor radioligand binding, hSSTR-1 (CHO-K1 membranes). To be noted: read-out: Ki hSSTR1 ± (SEM). How it is done:
Membranes for in vitro receptor binding assays were obtained by homogenizing (Polytron setting 6, 15 sec) CHO-K1 cells expressing human somatostatin receptor subtypes hSSTR-1, hSSTR-2, hSSTR-3, hSSTR-4 or hSSTR-5 in ice-cold 50 mM Tris-HCl. The homogenized cells were centrifuged twice at 39,000 g for 10 minutes with an intermediate resuspension in fresh buffer. The final pellets were resuspended in 10 mM Tris-HCl to prepare the cell membrane homogenate for use in the binding assay.
The final assay volume was 0.3 ml.
The cell membrane homogenate was incubated with the radioligands for 90 minutes at 25° C. The incubations were terminated by rapid filtration through GF/C filters pre-soaked in 0.3% polyethylenimine using a Brandel® filtration manifold (Gaithersberg, Md., U.S.A.). Each tube and filter was washed three times with 5-ml aliquots of ice-cold buffer. Specific binding was defined as the total radioligand bound minus that bound in the presence of 1000 nM SRIF-14 (for hSSTR-1, hSSTR-3, hSSTR-4 or hSSTR-5), or 1000 nM DPhe-c(Cys-Tyr-D-Trp-Lys-Abu-Cys)-Thr-NH2 for hSSTR-2.

The target of the next data set is T2, hSSTR-2 (Homo sapiens, UniProt P30874).
T2 construct: expressed in transfected cells; host or cells: CHO-K1
Briefly: Somatostatin receptor radioligand binding, hSSTR-2 (CHO-K1 membranes). To be noted: read-out: Ki hSSTR2 ± (SEM).

Another data set addresses T3, hSSTR-3 (Homo sapiens, UniProt P32745).
T3 construct: expressed in transfected cells; host or cells: CHO-K1
Briefly: Somatostatin receptor radioligand binding, hSSTR-3 (CHO-K1 membranes). To be noted: read-out: Ki hSSTR3 ± (SEM).

A further data set deals with T4, hSSTR-4 (Homo sapiens, UniProt P31391).
T4 construct: expressed in transfected cells; host or cells: CHO-K1
Description: Somatostatin receptor radioligand binding, hSSTR-4 (CHO-K1 membranes). To be noted: read-out: Ki hSSTR4 ± (SEM).

The target in another data set is T5, hSSTR-5 (Homo sapiens, UniProt P35346).
T5 construct: expressed in transfected cells; host or cells: CHO-K1
Briefly: Somatostatin receptor radioligand binding, hSSTR-5 (CHO-K1 membranes). To be noted: read-out: Ki hSSTR5 ± (SEM).

In a further data set the target is T6, bombesin/GRP receptor (Rattus norvegicus, UniProt P52500).
T6 construct: AR42J rat pancreas cells expressing the native bombesin/GRP receptor; endogenous in cells; host or cells: AR42J rat pancreas cells
Description: Bombesin/GRP radioligand binding (AR42J rat pancreas cell membranes). To be noted: read-out: Ki bombesin receptor ± (SEM). On the procedure:
Membranes were prepared for radioligand binding studies by homogenization of AR42J rat pancreas cells expressing the native bombesin/GRP receptor in 20 ml of ice-cold 50 mM Tris-HCl with a Brinkman Polytron® (Westbury, N.Y., U.S.A.) at settings of 6, 15 seconds. The homogenates were washed twice by centrifugation (39,000 g/10 minutes) and the final pellets were resuspended in 50 mM Tris-HCl containing 2.5 mM MgCl2 and 0.1% BSA. […] The filters were then washed three times with 5-ml aliquots of ice-cold 50 mM Tris-HCl. The bound radioactivity trapped on the filters was counted by gamma spectrometry (Wallac LKB®, Gaithersburg, Md., U.S.A.).

The structures appear in SMILES notation. Numbered stars: 1 amine (or outer) side, 2 acyl side, 3 side chain; on linkers, the order of the positions; unused ones are H or OH. Bridge positions count the residues as written; N and C are the ends. Square brackets hold non-standard residues; d marks the D form. Peptide text beside a SMILES is read from it. * marks the point of attachment. Pipz(1-CH2CO,4-CH2CH2NH) = O=C(CN1CCN(CCN[*:1])CC1)[*:2]; X1 = CC[C@@]1(O*)C(=O)OCc2c1cc1n(c2=O)Cc2cc3ccccc3nc2-1; Tyr(3-I) = N[C@@H](Cc1ccc(O)c(I)c1)C(=O)O; Glutaryl = O=C(CCCC(=O)[*:2])[*:1]; Suc = O=C(CCC(=O)[*:2])[*:1]; Nle = CCCC[C@H](N)C(=O)O; Abu = CC[C@H](N)C(=O)O; AEEA = NCCOCCOCC(=O)O; Ava = NCCCCC(=O)O; GABA = NCCCC(=O)O; βAla = NCCC(=O)O Bounds are passed on as bounds.

T6 sequence (P52500 whole entry): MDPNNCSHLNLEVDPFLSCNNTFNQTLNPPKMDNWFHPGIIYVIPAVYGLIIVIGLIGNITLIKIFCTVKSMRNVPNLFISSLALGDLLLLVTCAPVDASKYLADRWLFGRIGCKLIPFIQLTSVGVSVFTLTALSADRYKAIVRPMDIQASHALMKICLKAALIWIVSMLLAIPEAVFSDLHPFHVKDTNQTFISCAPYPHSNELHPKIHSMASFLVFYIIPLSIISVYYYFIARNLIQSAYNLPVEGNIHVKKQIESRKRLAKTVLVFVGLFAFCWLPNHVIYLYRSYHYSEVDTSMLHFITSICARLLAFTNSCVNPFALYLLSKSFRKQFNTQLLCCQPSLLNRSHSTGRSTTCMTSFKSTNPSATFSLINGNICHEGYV
T1 sequence (P30872 whole entry): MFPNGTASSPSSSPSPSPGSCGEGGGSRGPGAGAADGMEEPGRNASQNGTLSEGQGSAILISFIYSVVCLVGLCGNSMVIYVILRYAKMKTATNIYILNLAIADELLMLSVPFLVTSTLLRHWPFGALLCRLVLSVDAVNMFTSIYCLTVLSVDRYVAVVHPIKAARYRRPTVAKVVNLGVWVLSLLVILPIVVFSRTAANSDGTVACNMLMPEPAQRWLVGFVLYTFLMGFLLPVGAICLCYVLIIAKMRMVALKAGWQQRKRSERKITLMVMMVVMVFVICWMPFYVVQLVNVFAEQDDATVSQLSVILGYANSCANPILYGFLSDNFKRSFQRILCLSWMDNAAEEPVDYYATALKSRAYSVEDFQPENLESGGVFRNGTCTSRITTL
T5 sequence (P35346 whole entry): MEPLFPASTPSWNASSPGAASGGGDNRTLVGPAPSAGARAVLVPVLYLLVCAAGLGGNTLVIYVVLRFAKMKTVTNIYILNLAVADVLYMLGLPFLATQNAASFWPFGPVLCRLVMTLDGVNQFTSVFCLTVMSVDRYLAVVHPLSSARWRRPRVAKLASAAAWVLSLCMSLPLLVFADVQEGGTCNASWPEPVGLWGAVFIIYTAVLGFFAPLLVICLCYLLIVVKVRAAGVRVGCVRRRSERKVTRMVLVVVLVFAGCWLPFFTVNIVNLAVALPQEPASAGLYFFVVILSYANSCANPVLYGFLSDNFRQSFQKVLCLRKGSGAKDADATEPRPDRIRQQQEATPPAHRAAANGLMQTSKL
T4 sequence (P31391 whole entry): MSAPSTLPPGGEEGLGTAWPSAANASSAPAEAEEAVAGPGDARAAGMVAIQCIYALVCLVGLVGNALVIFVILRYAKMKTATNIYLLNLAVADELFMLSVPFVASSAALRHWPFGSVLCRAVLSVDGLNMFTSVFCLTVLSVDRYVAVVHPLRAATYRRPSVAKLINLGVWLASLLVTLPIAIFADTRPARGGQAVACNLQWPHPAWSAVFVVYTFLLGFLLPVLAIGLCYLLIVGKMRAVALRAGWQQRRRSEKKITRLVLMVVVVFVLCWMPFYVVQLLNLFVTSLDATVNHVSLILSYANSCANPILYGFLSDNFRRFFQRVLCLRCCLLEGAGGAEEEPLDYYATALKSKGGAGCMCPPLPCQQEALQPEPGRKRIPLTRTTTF
T2 sequence (P30874 whole entry): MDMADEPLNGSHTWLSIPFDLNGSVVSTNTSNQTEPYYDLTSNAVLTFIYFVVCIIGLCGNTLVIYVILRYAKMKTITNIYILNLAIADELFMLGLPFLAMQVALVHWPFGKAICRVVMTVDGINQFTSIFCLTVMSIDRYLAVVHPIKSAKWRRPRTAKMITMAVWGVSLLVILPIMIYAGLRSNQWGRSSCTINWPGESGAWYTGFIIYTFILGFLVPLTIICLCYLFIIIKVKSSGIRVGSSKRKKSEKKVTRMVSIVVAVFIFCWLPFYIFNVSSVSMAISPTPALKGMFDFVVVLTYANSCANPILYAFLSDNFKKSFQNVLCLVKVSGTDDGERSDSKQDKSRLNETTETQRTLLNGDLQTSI
T3 sequence (P32745 whole entry): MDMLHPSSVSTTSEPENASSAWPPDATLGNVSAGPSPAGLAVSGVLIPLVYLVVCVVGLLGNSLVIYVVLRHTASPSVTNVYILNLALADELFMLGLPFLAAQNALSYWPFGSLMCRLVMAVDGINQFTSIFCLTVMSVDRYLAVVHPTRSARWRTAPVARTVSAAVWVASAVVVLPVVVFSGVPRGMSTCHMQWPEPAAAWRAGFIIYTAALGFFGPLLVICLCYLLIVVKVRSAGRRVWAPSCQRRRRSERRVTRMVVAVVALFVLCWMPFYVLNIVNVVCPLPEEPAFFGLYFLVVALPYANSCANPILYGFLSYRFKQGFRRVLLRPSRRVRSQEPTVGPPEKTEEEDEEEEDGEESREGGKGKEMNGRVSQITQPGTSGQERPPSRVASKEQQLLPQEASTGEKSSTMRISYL
Description for hSSTR-2: (§2) For the hSSTR-1, hSSTR-3, and hSSTR-4 assays, aliquots of the membrane preparations were incubated for 90 minutes at 25° C. with 0.05 nM [^125I-Tyr11]SRIF-14 in 50 mM HEPES (pH 7.4) buffer containing 0.2% BSA and 5 mM MgCl2. The final assay volume was 0.3 ml. For the hSSTR-2 and hSSTR-5 assays, [^125I]-[4-(2-hydroxyethyl)]-1-piperazinylacetyl-D-Phe-c(Cys-Tyr-D-Trp-Lys-Abu-Cys)-Thr-NH2 (0.05 nM) and [^125I]-D-Phe-c(Cys-Tyr-D-Trp-Lys-Val-Cys)-Thr-NH2 were employed as the radioligands, respectively.
Description for hSSTR-3: as §2
Description for hSSTR-4: as §2
Description for hSSTR-5: as §2

In the case of `CC[C@@H]1NC(=O)[C@H](CCCCN)NC(=O)[C@@H](Cc2c[nH]c3ccccc23)NC(=O)[C@H](Cc2ccc(O)c(I)c2)NC(=O)[C@@H](NC(=O)[C@@H](Cc2ccc(O)cc2)NC(=O)[C@@H](Cc2ccc(O)cc2)NC(=O)[C@H](CCCCN)NC(=O)COCCOCCNC(=O)COCCOCCNC(=O)COCCOCCNC(=O)COCCOCCNC(=O)COCCOCCNC(=O)COCCOCCNC(=O)CCCC(=O)NCC(=O)O[C@]2(CC)C(=O)OCc3c2cc2n(c3=O)Cc3cc4ccccc4nc3-2)CSSC[C@@H](C(=O)N[C@H](C(N)=O)[C@@H](C)O)NC1=O` [Example 2, Camptothecin-rvGly-Glut-(Doc)6-Lys-D-Tyr-D-Tyr-c(Cys-3-(I)Tyr-D-Trp-Lys-Abu-Cys)-Thr-NH2] ({X1-Gly-Glutaryl-AEEA-AEEA-AEEA-AEEA-AEEA-AEEA}-K[dY][dY]C[Tyr(3-I)][dW]K[Abu]CT-NH2; disulfide 4-9), the half-life (as a rule, how long it takes for the measured level to halve) was 4.6 h in data set [1] and 2.2 h in data set [2]. Besides, the Ki (as a rule, a dissociation constant, usually derived from enzyme kinetics or from competition with a known ligand) was at least 1000 nM at hSSTR-1; 0.36 nM on hSSTR-2; 125 nM on hSSTR-3; at least 1000 nM on hSSTR-4; 3 nM at hSSTR-5.
For the molecule `CC[C@@H]1NC(=O)[C@H](CCCCN)NC(=O)[C@@H](Cc2c[nH]c3ccccc23)NC(=O)[C@H](Cc2ccc(O)cc2)NC(=O)[C@@H](NC(=O)[C@@H](Cc2ccccc2)NC(=O)CN2CCN(CCNC(=O)COCCOCCNC(=O)COCCOCCNC(=O)COCCOCCNC(=O)COCCOCCNC(=O)CCC(=O)NCCCCCCCCC(=O)O[C@]3(CC)C(=O)OCc4c3cc3n(c4=O)Cc4cc5ccccc5nc4-3)CC2)CSSC[C@@H](C(=O)N[C@H](C(N)=O)[C@@H](C)O)NC1=O` [Example 17, Camptothecin-rvAnc-Suc-(Doc)4-Aepa-D-Phe-cyclo(Cys-Tyr-D-Trp-Lys-Abu-Cys)-Thr-NH2], the values for the half-life in data set [1] and in data set [2] were 15.6 h and 28.6 h, respectively. For the same molecule, the Ki at hSSTR-1 and at hSSTR-5 was at least 1000 nM throughout.
Turning to `CC[C@@H]1NC(=O)[C@H](CCCCN)NC(=O)[C@@H](Cc2c[nH]c3ccccc23)NC(=O)[C@H](Cc2ccc(O)cc2)NC(=O)[C@@H](NC(=O)[C@@H](Cc2ccccc2)NC(=O)CN2CCN(CCNC(=O)COCCOCCNC(=O)COCCOCCNC(=O)COCCOCCNC(=O)COCCOCCNC(=O)CCC(=O)NCCCCCCC(=O)O[C@]3(CC)C(=O)OCc4c3cc3n(c4=O)Cc4cc5ccccc5nc4-3)CC2)CSSC[C@@H](C(=O)N[C@H](C(N)=O)[C@@H](C)O)NC1=O` [Example 18, Camptothecin-rvAhp-Suc-(Doc)4-Aepa-D-Phe-cyclo(Cys-Tyr-D-Trp-Lys-Abu-Cys)-Thr-NH2], the half-life in data set [1] is 16.2 h; in data set [2], 8 h. In addition, the inhibition constant Ki at hSSTR-1 and at hSSTR-5 was at least 1000 nM in each case.
On to `CCCC[C@H](NC(=O)[C@H](CC(C)C)NC(=O)[C@H](Cc1c[nH]cn1)NC(=O)CCNC(=O)[C@@H](NC(=O)[C@H](C)NC(=O)[C@H](Cc1c[nH]c2ccccc12)NC(=O)[C@H](CCC(N)=O)NC(=O)CCCCCNC(=O)CN1CCN(CCNC(=O)COCCOCCNC(=O)COCCOCCNC(=O)COCCOCCNC(=O)COCCOCCNC(=O)CCC(=O)NCC(=O)O[C@]2(CC)C(=O)OCc3c2cc2n(c3=O)Cc3cc4ccccc4nc3-2)CC1)C(C)C)C(N)=O` [Example 21, Camptothecin-rvGly-Suc-(Doc)4-Aepa-Ahx-Gln-Trp-Ala-Val-β-Ala-His-Leu-Nle-NH2], for which the half-life is 5.4 h in data set [1] and 3.2 h in data set [2]. Besides, the Ki on bombesin/GRP receptor stood at 1.9 nM.
Consider `CCCC[C@H](NC(=O)[C@H](CC(C)C)NC(=O)[C@H](Cc1c[nH]cn1)NC(=O)CCNC(=O)[C@@H](NC(=O)[C@H](C)NC(=O)[C@H](Cc1c[nH]c2ccccc12)NC(=O)[C@H](CCC(N)=O)NC(=O)CCCNC(=O)[C@H](CC(C)C)NC(=O)CN1CCN(CCNC(=O)COCCOCCNC(=O)COCCOCCNC(=O)COCCOCCNC(=O)COCCOCCNC(=O)CCC(=O)NCC(=O)O[C@]2(CC)C(=O)OCc3c2cc2n(c3=O)Cc3cc4ccccc4nc3-2)CC1)C(C)C)C(N)=O` [Example 22, Camptothecin-rvGly-Suc-(Doc)4-Aepa-Leu-Gaba-Gln-Trp-Ala-Val-β-Ala-His-Leu-Nle-NH2] ({X1-Gly-Suc-AEEA-AEEA-AEEA-AEEA}-[Pipz(1-CH2CO,4-CH2CH2NH)]L[GABA]QWAV[βAla]HL[Nle]-NH2), for which the half-life is 2.1 h in data set [1] and 1.8 h in data set [2]. Moreover, on bombesin/GRP receptor, the Ki stood at 18.2 nM.
With `CCCC[C@H](NC(=O)[C@H](CC(C)C)NC(=O)[C@H](Cc1c[nH]cn1)NC(=O)CCNC(=O)[C@@H](NC(=O)[C@H](C)NC(=O)[C@H](Cc1c[nH]c2ccccc12)NC(=O)[C@H](CCC(N)=O)NC(=O)[C@H](CC(N)=O)NC(=O)CCCNC(=O)CN1CCN(CCNC(=O)COCCOCCNC(=O)COCCOCCNC(=O)COCCOCCNC(=O)COCCOCCNC(=O)CCC(=O)NCC(=O)O[C@]2(CC)C(=O)OCc3c2cc2n(c3=O)Cc3cc4ccccc4nc3-2)CC1)C(C)C)C(N)=O` [Example 23, Camptothecin-rvGly-Suc-(Doc)4-Aepa-Gaba-Asn-Gln-Trp-Ala-Val-β-Ala-His-Leu-Nle-NH2] ({X1-Gly-Suc-AEEA-AEEA-AEEA-AEEA}-[Pipz(1-CH2CO,4-CH2CH2NH)][GABA]NQWAV[βAla]HL[Nle]-NH2), the half-life in data set [1] was 2.9 h; in data set [2] it was 4.2 h. In addition, the inhibition constant Ki on bombesin/GRP receptor turned out to be 7.65 nM.
As to `CCCC[C@H](NC(=O)[C@H](CC(C)C)NC(=O)[C@H](Cc1c[nH]cn1)NC(=O)CCNC(=O)[C@@H](NC(=O)[C@H](C)NC(=O)[C@H](Cc1c[nH]c2ccccc12)NC(=O)[C@H](CCC(N)=O)NC(=O)[C@H](CC(N)=O)NC(=O)CCCCNC(=O)CN1CCN(CCNC(=O)COCCOCCNC(=O)COCCOCCNC(=O)COCCOCCNC(=O)COCCOCCNC(=O)CCC(=O)NCC(=O)O[C@]2(CC)C(=O)OCc3c2cc2n(c3=O)Cc3cc4ccccc4nc3-2)CC1)C(C)C)C(N)=O` [Example 24, Camptothecin-rvGly-Suc-(Doc)4-Aepa-Apn-Asn-Gln-Trp-Ala-Val-β-Ala-His-Leu-Nle-NH2] ({X1-Gly-Suc-AEEA-AEEA-AEEA-AEEA}-[Pipz(1-CH2CO,4-CH2CH2NH)][Ava]NQWAV[βAla]HL[Nle]-NH2), the half-life in data set [1] is 2.6 h; in data set [2] it was 4.6 h. For the same molecule, the inhibition constant (Ki) at bombesin/GRP receptor amounted to 4.07 nM.
Turning to `CCCC[C@H](NC(=O)[C@H](CC(C)C)NC(=O)[C@H](Cc1c[nH]cn1)NC(=O)CCNC(=O)[C@@H](NC(=O)[C@H](C)NC(=O)[C@H](Cc1c[nH]c2ccccc12)NC(=O)[C@H](CCC(N)=O)NC(=O)[C@@H](Cc1ccc(O)cc1)NC(=O)[C@@H](CO)NC(=O)CN1CCN(CCNC(=O)COCCOCCNC(=O)COCCOCCNC(=O)COCCOCCNC(=O)COCCOCCNC(=O)CCC(=O)NCC(=O)O[C@]2(CC)C(=O)OCc3c2cc2n(c3=O)Cc3cc4ccccc4nc3-2)CC1)C(C)C)C(N)=O` [Example 27, Camptothecin-rvGly-Suc-(Doc)4-Aepa-D-Ser-D-Tyr-Gln-Trp-Ala-Val-β-Ala-His-Leu-Nle-NH2] ({X1-Gly-Suc-AEEA-AEEA-AEEA-AEEA}-[Pipz(1-CH2CO,4-CH2CH2NH)][dS][dY]QWAV[βAla]HL[Nle]-NH2), the half-life is 3.8 h in data set [1] and 4.5 h in data set [2]. Moreover, the Ki on bombesin/GRP receptor was 3.96 nM.
